One protein from the PETadex activity labels (doi:10.1074/jbc.m303867200) can be followed below.

In general, Km refers to the concentration of substrate that gives half-maximal velocity. As usually defined, the kcat is the maximal rate divided by the concentration of active sites. As a reminder, the kcat/Km is the turnover number divided by the Michaelis constant.

What all share (details): pH 8; 37 °C
Substrate in data set [1]: p-NP-C12
Substrate in data set [2]: p-NP-C2
Substrate in data set [3]: p-NP-C3
Substrate in data set [4]: p-NP-C4
Substrate in data set [5]: p-NP-C6

B1: unnamed (protein)
chain: MNNIWWQTKGQGNVHLVLLHGWGLNAEVWRCIDEELSSHFTLHLVDLPGFGRSRGFGALSLADMAEAVLQQAPDKAIWLGWSLGGLVASQIALTHPERVQALVTVASSPCFSARDEWPGIKPDVLAGFQQQLSDDFQRTVERFLALQTMGTETARQDARALKKTVLALPMPEVDVLNGGLEILKTVDLRQPLQNVSMPFLRLYGYLDGLVPRKVVPMLDKLWPHSESYIFAKAAHAPFISHPAEFCHLLVALKQRV
For B1, the Km worked out at 600 µM in data set [1]; 290 µM in data set [2]; 350 µM in data set [3]; 330 µM in data set [4]; 250 µM in data set [5]. Also, the kcat is 1.5 s⁻¹ in data set [1]; 18.5 s⁻¹ in data set [2]; 13.1 s⁻¹ in data set [3]; 6.1 s⁻¹ in data set [4]; 4 s⁻¹ in data set [5]. Also, the catalytic efficiency (kcat/Km) in data set [1] amounted to 2500 M⁻¹ s⁻¹; in data set [2] it was 63800 M⁻¹ s⁻¹; in data set [3] it was 37400 M⁻¹ s⁻¹; in data set [4], 18500 M⁻¹ s⁻¹; in data set [5], 16000 M⁻¹ s⁻¹.
